The test system of the experiment is P. acnes biofilms. Description: Screen of enzymes that degrade P. acnes biofilms (crystal violet). The settings on record: enzymes 0.01 mg/mL, 30° C., 30 mins. Type of experiment: cell-based. As for the experimental part: FIG. 4. A screen to select enzymes that can degrade P. acnes biofilms. P. acnes was grown in polystyrene microtiter plates to stimulate biofilm production. Enzymes were added at 0.01 mg/mL to the wells and incubated at 30° C. for 30 mins. The degraded biofilm was washed away with phosphate buffered saline (PBS), and the residual biofilm in each well was quantified by staining with crystal violet and recording absorbance at 590 nm.
Without being bound by any scientific theory, we hypothesized that biofilms might present a significant barrier to phage killing of sessile P. acnes cells. […] In order to determine whether biofilm degradation would improve phage killing, a number of enzymes was screened to find a BDE specific for P. acnes. The screen comprised three classes of enzymes that might degrade types of materials that may be found in biofilms: DNA, polysaccharides, and proteins.

Data on two molecules can be found in US12576024B2, “Compositions comprising Propionibacterium acnes bacteriophages for treating acne” (priority 2017, dated 2026).

Entries after “also recorded” stand apart in the source; their conditions may differ.

B1: proteinase K: protease screened as P. acnes biofilm degrading enzyme (protein, UniProt P06873 106-384, looked up)
Proteinase K: AAQTNAPWGLARISSTSPGTSTYYYDESAGQGSCVYVIDTGIEASHPEFEGRAQMVKTYYYSSRDGNGHGTHCAGTVGSRTYGVAKKTQLFGVKVLDDNGSGQYSTIIAGMDFVASDKNNRNCPKGVVASLSLGGGYSSSVNSAAARLQSSGVMVAVAAGNNNADARNYSPASEPSVCTVGASDRYDRRSSFSNYGSVLDIFGPGTSILSTWIGGSTRSISGTSMATPHVAGLAAYLMTLGKTTAASACRYIADTANKGDLSNIPFGTVNLLAYNNYQA
On to B1, for which the “P. acnes biofilm degradation (residual biofilm, absorbance at 590 nm)” value is “good activity”.

B2: dispersin: a glycoside hydrolase from Aggregatibacter actinomycetemcomitans, biofilm degrading enzyme (protein)
chain: MNCCVKGNSIYPQKTSTKQTGLMLDIARHFYSPEVIKSFIDTISLSGGNFLHLHFSDHENYAIESHLLNQRAENAVQGKDGIYINPYTGKPFLSYRQLDDIKAYAKAKGIELIPELDSPNHMTAIFKLVQKDRGVKYLQGLKSRQVDDEIDITNADSITFMQSLMSEVIDIFGDTSQHFHIGGDEFGYSVESNHEFITYANKLSYFLEKKGLKTRMWNDGLIKNTFEQINPNIEITYWSYDGDTQDKNEAAERRDMRVSLPELLAKGFTVLNYNSYYLYIVPKASPTFSQDAAFAAKDVIKNWDLGVWDGRNTKNRVQNTHEIAGAALSIWGEDAKALKDETIQKNTKSLLEAVIHKTNGDE
modifications: Aggregatibacter actinomycetemcomitans
notes: a glycoside hydrolase from Aggregatibacter actinomycetemcomitans, biofilm degrading enzyme
For the molecule B2, the “P. acnes biofilm degradation (residual biofilm, absorbance at 590 nm)” value is “best glycoside depolymerase amongst those tested; also recorded: best rates of biofilm degradation”.
